Assay results reported in article PMC5951847, “Substrate sequence selectivity of APOBEC3A implicates intra-DNA interactions”.

Biological target: A3A(E72A) (Homo sapiens, UniProt P31941 1-199, E72A)
Test: fluorescence anisotropy; pH 6.0; 50 mM MES pH 6.0, 100 mM NaCl, 0.5 mM TCEP, room temperature overnight, 10 nM TAMRA-oligo; competition with 300 nM A3A(E72A); pH series: acetate 4.0-5.0, MES 5.5-6.5, HEPES 7.0-8.0, Tris 8.5-9.0
Settings: protein: recombinant; tags: His6-SUMO removed by Ulp1 (untagged); label: 5' TAMRA; hairpin

Chain of A3A(E72A) (P31941 whole entry E72A): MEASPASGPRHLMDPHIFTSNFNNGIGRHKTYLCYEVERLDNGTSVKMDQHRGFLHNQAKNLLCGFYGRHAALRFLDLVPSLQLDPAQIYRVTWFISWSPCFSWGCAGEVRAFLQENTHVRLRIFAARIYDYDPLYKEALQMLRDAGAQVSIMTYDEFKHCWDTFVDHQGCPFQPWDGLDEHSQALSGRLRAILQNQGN

B1: Hairpin-TTC (structured_DNA)
DNA: GCCATCATTCGATGGG
B1 was tested, and the Kd was 26 ± 2 nM.
